The nature of this series: self-splicing fitness, log relative to wild type (ln ratio); higher = more splicing; Tetrahymena group I intron in knt gene, E. coli kanamycin selection, DiMSum; sequences stand for … in CUCUCU…GGAGGGAAAAGUUAUCAGGCAUGCACCUGGUAGCUAGUCUUUAAACCAAUAGAUUGCAUCGGUUUAAAAGGCAAGACCGUCAAAUUGCGGGAAAGGGGUCAACAGCCGUUCAGUACCAAGUCUCAGGGGAAACUUUGAGAUGGCCUUGCAAAGGGUAUGGUAAUAAGCUGACGGACAUGGUCCUAACCACGCAGCCAAGUCCUAAGUCAACAGAUCUUCUGUUGAUAUGGAUGCAGUUCACAGACUAAAUGUCGGUCGGGGAAGAUGUAUUCUUCUCAUAAGAUAUAGUCGGACCUCUCCUUAAUGGGAGCUAGCGGAUGAAGUGAUGCAACACUGGAGCCGCUGGGAACUAAUUUGUAUGCGAAAGUAUAUUGAUUAGUUUUGGAGUACUCGUGGUCG
A digest of the protocol:
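Colonies from six replicate transformations of E. coli BL21(DE3) were pooled and amplicon-sequenced on an Illumina HiSeq 2500. The library placed an intron with all eight P1ex-region nucleotides randomised inside the knt kanamycin-resistance gene on pET-22b(+), and cells grew overnight at 37°C or 30°C on LB agar with or without 25 μg/mL kanamycin (plus 100 μg/mL carbenicillin, 50 μM IPTG, 0.2% rhamnose). Fitness is the DiMSum error-weighted combination of wild-type-normalised replicate fold changes, kanamycin versus none.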

± gives the uncertainty stated by the source.

On to GAACAGCAAUAUUACGUAUA, for which the “self-splicing fitness (ln)” value is -0.835 ± 0.083 (30 °C) and -0.324 ± 0.1 (37 °C).

In the case of ACGUAGCAAUAUUACGAUUU, the “self-splicing fitness (ln)” value runs as follows: (30 °C) 0.256 ± 0.059; (37 °C) -0.149 ± 0.073. As for CAGGAGCAAUAUUACGUGAC, the “self-splicing fitness (ln)” value (30 °C) was -2.45 ± 0.19. Take ACGAAGCAAUAUUACGGCCU: the “self-splicing fitness (ln)” value (30 °C) was 0.00118 ± 0.097 and the “self-splicing fitness (ln)” value (37 °C) worked out at 0.0498 ± 0.13.

For the sequence UGAAAGCAAUAUUACGUCCC, the “self-splicing fitness (ln)” value (30 °C) was -2.54 ± 0.45. As for GUUAAGCAAUAUUACGCGUC, the “self-splicing fitness (ln)” value was -3.23 ± 0.26 (30 °C) and -1.96 ± 0.2 (37 °C). The corresponding values for GCGCAGCAAUAUUACGCAGG are -3.86 ± 0.31 and -2.09 ± 0.34. The like results for AACGAGCAAUAUUACGUAGA were, in that order, -2.99 ± 0.12 and -2.43 ± 0.17. Consider UUCGAGCAAUAUUACGAUGC, for which, under “30 °C”, the “self-splicing fitness (ln)” value was -1.44 ± 0.4. On to UCCGAGCAAUAUUACGAGUG, for which the “self-splicing fitness (ln)” value (30 °C) was -2.41 ± 0.09 and the “self-splicing fitness (ln)” value (37 °C) was -1.34 ± 0.094. The like results for AUAUAGCAAUAUUACGCGAU were, in that order, -2.69 ± 0.33 and -1.57 ± 0.49.

Turning to AAACAGCAAUAUUACGUAGA, the “self-splicing fitness (ln)” value is, setting by setting: (30 °C) -2.31 ± 0.1; (37 °C) -0.368 ± 0.092.

As for AGUAAGCAAUAUUACGAAUG, under “30 °C”, the “self-splicing fitness (ln)” value was -1.15 ± 0.28. In the case of GGCUAGCAAUAUUACGCAUU, the “self-splicing fitness (ln)” value (30 °C) is -0.352 ± 0.074 and the “self-splicing fitness (ln)” value (37 °C) stood at 0.553 ± 0.086. Regarding UUUCAGCAAUAUUACGAAUU, the “self-splicing fitness (ln)” value is, setting by setting: (30 °C) -1.67 ± 0.081; (37 °C) -0.87 ± 0.12.

As to GGUUAGCAAUAUUACGUUUC, the “self-splicing fitness (ln)” value runs as follows: (30 °C) -3.04 ± 0.21; (37 °C) -0.645 ± 0.18.

As to GUUUAGCAAUAUUACGUACG, the “self-splicing fitness (ln)” value was -2.01 ± 0.14 (30 °C) and -0.33 ± 0.17 (37 °C).

With GAGCAGCAAUAUUACGGCAA, the “self-splicing fitness (ln)” value is -0.276 ± 0.062 (30 °C) and -0.126 ± 0.072 (37 °C). On to GAGAAGCAAUAUUACGAGGA, for which the “self-splicing fitness (ln)” value reads like this: (30 °C) -3.83 ± 0.33; (37 °C) -2.11 ± 0.19. Take AAAGAGCAAUAUUACGCGGC: the “self-splicing fitness (ln)” value (37 °C) was -3.08 ± 0.4. As to UAUGAGCAAUAUUACGUAUG, the “self-splicing fitness (ln)” value (30 °C) was -2.35 ± 0.22 and the “self-splicing fitness (ln)” value (37 °C) is -1.58 ± 0.27. The like results for CUAUAGCAAUAUUACGCGAC were, in that order, -1.89 ± 0.18 and 0.00503 ± 0.2.

As to GACAAGCAAUAUUACGCACC, the “self-splicing fitness (ln)” value (30 °C) is -1.43 ± 0.14 and the “self-splicing fitness (ln)” value (37 °C) is -0.635 ± 0.19. The like results for CCCUAGCAAUAUUACGCGAU were, in that order, -3.74 ± 0.18 and -2.77 ± 0.2. The like results for CCUUAGCAAUAUUACGGUAU were, in that order, -3.64 ± 0.33 and -2.67 ± 0.36. The like results for CUACAGCAAUAUUACGAAAG were, in that order, -1.42 ± 0.078 and -0.755 ± 0.094. With CGCCAGCAAUAUUACGGGCU, the “self-splicing fitness (ln)” value (30 °C) was -3.79 ± 0.18 and the “self-splicing fitness (ln)” value (37 °C) was -2.04 ± 0.12. The like results for GAAUAGCAAUAUUACGAGAG were, in that order, -2.92 ± 0.2 and -3.05 ± 0.28. The like results for CGUAAGCAAUAUUACGUAAG were, in that order, -1.49 ± 0.1 and -0.165 ± 0.092. As for CUCUAGCAAUAUUACGCCAU, the “self-splicing fitness (ln)” value (37 °C) is -3.56 ± 0.33.

For GGAUAGCAAUAUUACGCGAA, the “self-splicing fitness (ln)” value (30 °C) was -1.69 ± 0.29 and the “self-splicing fitness (ln)” value (37 °C) was -1.41 ± 0.42. The like results for GUAUAGCAAUAUUACGCUUG were, in that order, -1.72 ± 0.16 and -1.41 ± 0.26. As to CAAGAGCAAUAUUACGUAAG, the “self-splicing fitness (ln)” value (30 °C) was -0.178 ± 0.084 and the “self-splicing fitness (ln)” value (37 °C) is -0.217 ± 0.12. The corresponding values for CGAGAGCAAUAUUACGUGGC are -4.31 ± 0.46 and -2.55 ± 0.26. The corresponding values for AGCUAGCAAUAUUACGUCCC are -1.33 ± 0.21 and 0.355 ± 0.22. The corresponding values for CGACAGCAAUAUUACGCUAA are -2.16 ± 0.19 and -1.57 ± 0.18. As for CUCAAGCAAUAUUACGUAGG, the “self-splicing fitness (ln)” value reads like this: (30 °C) -0.955 ± 0.068; (37 °C) -0.324 ± 0.11. As to UACGAGCAAUAUUACGAUGC, the “self-splicing fitness (ln)” value (37 °C) was -2.04 ± 0.33.

For AACGAGCAAUAUUACGACUG, the “self-splicing fitness (ln)” value is, setting by setting: (30 °C) -2.12 ± 0.16; (37 °C) -0.348 ± 0.15. Turning to AACUAGCAAUAUUACGUUAG, the “self-splicing fitness (ln)” value was -3.12 ± 0.17 (30 °C) and -3.33 ± 0.26 (37 °C).
